The values that follow are results of earlier work, collected in PMC8999013.

In the data set the target is integrin α7B cytoplasmic domain (Homo sapiens) (UniProt Q13683). The experiment in a line: intrinsic tryptophan fluorescence.
Sequence of integrin α7B cytoplasmic domain (Homo sapiens) (Q13683 1104-1181): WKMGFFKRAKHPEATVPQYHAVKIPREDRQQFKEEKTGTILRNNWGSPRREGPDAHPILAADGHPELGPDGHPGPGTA

Sequence of CIB2 (O75838 whole entry): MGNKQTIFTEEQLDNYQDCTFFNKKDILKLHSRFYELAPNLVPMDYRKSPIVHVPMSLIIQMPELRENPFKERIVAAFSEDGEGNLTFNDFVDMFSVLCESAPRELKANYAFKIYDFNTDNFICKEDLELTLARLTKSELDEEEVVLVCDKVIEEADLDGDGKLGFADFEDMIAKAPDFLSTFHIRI

On to CIB2 (from UniProt O75838), for which the Kd is 304 nM.

What is called Kd is the constant that tells how readily two partners part at equilibrium.
